Measurements as given in patent US20200164059A1 (FRED HUTCHINSON CANCER RESEARCH CENTER, published 2020).

Key:
[1] = molecular target: T1, EBV gH/gL heterodimer, recombinant ectodomain (Epstein Barr virus); experiment: BLI kinetics, pH 5.0, ligand AMMO1 Mab, analyte gH/gL; koff (1/s) x10^-3
T1 construct: range 19-679;range 24-137

[2] = molecular target: T1, EBV gH/gL heterodimer, recombinant …; experiment: BLI kinetics, pH 7.4, ligand AMMO1 Mab, analyte gH/gL; kon (1/Ms) x10^5
[3] = molecular target: T1, EBV gH/gL heterodimer, recombinant …; experiment: BLI kinetics, pH 5.0, ligand AMMO1 Mab, analyte gH/gL; KA M^-1 x10^7
[4] = molecular target: T1, EBV gH/gL heterodimer, recombinant …; experiment: BLI kinetics, pH 7.4, ligand AMMO1 Mab, analyte gH/gL; KA M^-1 x10^7
gH/gL on EBV virions = gH/gL on EBV virions (Epstein Barr virus, UniProt P03231 19-706; P03212 23-137); experiment: cell-based or functional assay
[5] = molecular target: gH T62A/gL, recombinant ectodomain (Epstein Barr virus)
[6] = molecular target: T1, EBV gH/gL heterodimer, recombinant …; experiment: BLI kinetics, pH 5.0, ligand AMMO1 Mab, analyte gH/gL; KD M x10^-9
[7] = molecular target: T1, EBV gH/gL heterodimer, recombinant …; experiment: BLI kinetics, pH 7.4, ligand AMMO1 Mab, analyte gH/gL; KD M x10^-9
[8] = molecular target: T1, EBV gH/gL heterodimer, recombinant …; experiment: BLI kinetics, pH 5.0, ligand AMMO1 Mab, analyte gH/gL; kon (1/Ms) x10^5
[9] = molecular target: T1, EBV gH/gL heterodimer, recombinant …; experiment: BLI kinetics, pH 7.4, ligand AMMO1 Mab, analyte gH/gL; koff (1/s) x10^-3

B1: AMMO1 (antibody, V domains shown)
VH: QVQLVQSGADVKKPGASVKVSCKASGYTFIHFGISWVRQAPGQGLEWMGWIDTNNGNTNYAQSLQGRVTMTTDTSTGTAYMELRSLSTDDTAVYFCARALEMGHRSGFPFDYWGQGVLVTVSP
VL: SYELTQPPSVSVAPGQRATITCGGHNIGAKNVHWYQQKPGQAPVLVIQYDSDRPSGIPERFSGSNSGSTATLTISRVEAGDEADYYCQVWDSGRGHPLYVFGGGTKVTVL
notes: also called WT AMMO1; anti-gH/gL MAb AMMO1
- koff [1]: 7.31e-05 s⁻¹
- kon [2]: 334000 M⁻¹ s⁻¹
- Ka [3]: 7.84e+09 M⁻¹
- Ka [4]: 8.63e+09 M⁻¹
- neutralization of B95.8/F EBV infection of B (Raji) cells, IC50 (gH/gL on EBV virions): 0.16 µg/mL
- Ka [5]: 5.85e+09 M⁻¹
- Kd [5]: 0.17 nM
- koff [5]: 0.000135 s⁻¹
- kon [5]: 789000 M⁻¹ s⁻¹
- Kd [6]: 0.13 nM
- Kd [7]: 0.12 nM
- kon [8]: 573000 M⁻¹ s⁻¹
- koff [9]: 3.87e-05 s⁻¹
